Test [1] deals with T1, human GIP receptor (human, UniProt P48546 22-466).
T1 sequence (looked up): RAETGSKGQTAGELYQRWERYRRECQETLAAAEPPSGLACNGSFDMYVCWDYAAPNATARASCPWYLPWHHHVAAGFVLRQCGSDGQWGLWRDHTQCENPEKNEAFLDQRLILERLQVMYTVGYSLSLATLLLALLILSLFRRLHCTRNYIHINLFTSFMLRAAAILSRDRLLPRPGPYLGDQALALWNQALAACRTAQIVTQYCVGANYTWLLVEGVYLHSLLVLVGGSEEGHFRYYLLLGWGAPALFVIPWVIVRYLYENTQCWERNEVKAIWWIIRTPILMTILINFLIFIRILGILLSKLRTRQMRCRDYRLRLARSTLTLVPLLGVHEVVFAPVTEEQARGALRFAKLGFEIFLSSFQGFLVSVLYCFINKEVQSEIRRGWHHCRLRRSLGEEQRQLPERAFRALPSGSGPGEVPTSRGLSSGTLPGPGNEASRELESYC
Description: cell-based or functional assay.

Test [2] deals with T2, human GLP-1 receptor (human, UniProt P43220 24-463). Put plainly: cell-based or functional assay.
For test [3], the target named is T1, human GIP receptor. Description: cell-based or functional assay. The source holds these as a separate data set.
Test [4] deals with T1, human GIP receptor. Description: displacement of [125I]GIP from HEK-293 membranes expressing hGIPR (SPA beads). (In a radioligand displacement assay an active substance lowers the binding of a labelled ligand.)
In test [5] the target is T2, human GLP-1 receptor. Description: displacement of [125I]GLP-1 from HEK-293 membranes expressing hGLP-1R (SPA beads).
The target in test [6] is T3, human GIP receptor (human), P48546.
T3 chain: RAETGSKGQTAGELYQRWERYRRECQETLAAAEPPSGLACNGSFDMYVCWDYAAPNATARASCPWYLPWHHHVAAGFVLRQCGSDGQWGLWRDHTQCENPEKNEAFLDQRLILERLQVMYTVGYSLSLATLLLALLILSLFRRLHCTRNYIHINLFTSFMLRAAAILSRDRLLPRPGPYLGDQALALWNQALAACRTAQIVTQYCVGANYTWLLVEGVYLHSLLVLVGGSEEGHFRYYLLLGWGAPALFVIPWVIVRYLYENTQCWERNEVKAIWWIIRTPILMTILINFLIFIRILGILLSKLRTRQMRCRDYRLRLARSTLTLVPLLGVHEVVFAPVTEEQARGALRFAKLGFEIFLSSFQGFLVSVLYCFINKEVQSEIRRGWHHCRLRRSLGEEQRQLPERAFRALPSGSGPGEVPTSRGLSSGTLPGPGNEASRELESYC
Description: displacement of [125I]GIP from HEK-293 membranes expressing hGIPR (SPA beads).

The target of test [7] is T4, human GLP-1 receptor (human), P43220.
T4 chain: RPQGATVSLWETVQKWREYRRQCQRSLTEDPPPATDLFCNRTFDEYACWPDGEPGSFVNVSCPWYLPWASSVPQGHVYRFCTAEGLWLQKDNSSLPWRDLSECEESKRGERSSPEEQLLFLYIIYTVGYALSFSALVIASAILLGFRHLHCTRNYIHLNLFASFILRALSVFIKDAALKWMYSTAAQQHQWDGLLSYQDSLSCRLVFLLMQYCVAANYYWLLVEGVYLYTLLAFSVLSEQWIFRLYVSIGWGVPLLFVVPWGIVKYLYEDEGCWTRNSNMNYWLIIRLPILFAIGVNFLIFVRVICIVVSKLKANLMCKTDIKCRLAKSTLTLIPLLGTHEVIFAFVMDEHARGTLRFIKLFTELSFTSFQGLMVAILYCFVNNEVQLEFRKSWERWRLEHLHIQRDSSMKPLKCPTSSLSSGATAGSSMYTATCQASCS
Put plainly: displacement of [125I]GLP-1 from HEK-293 membranes expressing hGLP-1R (SPA beads).

The target in test [8] is T3, human GIP receptor (human), P48546. Put plainly: cell-based or functional assay.

The source of these data is patent publication US20240360194A1, “New Peptides as Potent and Selective GIP Receptor Agonists” (Sanofi, priority 2021, published 2024).

For orientation: IC50 means the concentration that gives 50% inhibition. Lower therefore signals greater potency.

Numbered stars: 1 amine (or outer) side, 2 acyl side, 3 side chain; on linkers, the order of the positions; unused ones are H or OH. Square brackets hold non-standard residues; d marks the D form. Side chains are listed from the residue outwards. Ends that are not written are not given here. * marks the point of attachment. C18 diacid = O=C(O)CCCCCCCCCCCCCCCCC(=O)*; γGlu = O=C(O)[C@H](CCC(=O)[*:2])N[*:1]; Iva = CC[C@](C)(N)C(=O)O; AEEA = NCCOCCOCC(=O)O; Aib = CC(C)(N)C(=O)O

For H-Y[Aib]EGT[Iva]ISDLSI[Aib]K([AEEA-AEEA-γGlu-C18 diacid])DRIHQEEFIEWLLAQGPSSGAPPPS-NH2 (Synthetic peptide, 39 residues) [SEQ ID NO: 24], in test [1], the “EC50 hGIPR 0% HSA (cAMP, HEK-293)” value came to 0.56 pM and the “EC50 hGIPR 0.1% BSA (cAMP, HEK-293)” value turned out to be 36.6 pM. In test [2], the “EC50 hGLP-1R 0.1% BSA (cAMP, HEK-293)” value is above 10 nM. In test [3], the “hGIPR EC50 (cAMP, human adipocytes)” value was 0.2 nM and the “hGIPR Emax (cAMP, human adipocytes)” value was 100%. The IC50 in test [4] was determined as 0.1 nM. In test [5], this molecule displayed a concentration for half-maximal inhibition (IC50) of 188 nM.

For Y[Aib]EGTFISDLSI[Aib]LEEQKQ[Aib]EFIEWLLAQGPSSGEPPPS-NH2 [SEQ ID NO: 38], in test [6], the IC50 is 0.2 nM. The IC50 in test [7] is 73 nM. Besides, in test [8], the EC50 hGIPR 0% HSA (cAMP, HEK-293) came out at 0.19 pM; the EC50 hGIPR 0.1% BSA (cAMP, HEK-293) was found to be 53.1 pM; the hGIPR EC50 (cAMP, human adipocytes) worked out at 0.4 nM; the hGIPR Emax (cAMP, human adipocytes) worked out at 92%.
